Measurements taken from US8273855 (JIANGSU NOVAVAC BIO TEC, dated 2012).

How the values were obtained:
[1] = target: T1, Caspr (native, adult rat brain membrane extracts) (rat, UniProt P97846 21-1381); assay: co-immunoprecipitation from adult rat brain membrane extracts, Western blot
T1 construct: also called Paranodin; contactin-associated protein
T1 sequence (looked up): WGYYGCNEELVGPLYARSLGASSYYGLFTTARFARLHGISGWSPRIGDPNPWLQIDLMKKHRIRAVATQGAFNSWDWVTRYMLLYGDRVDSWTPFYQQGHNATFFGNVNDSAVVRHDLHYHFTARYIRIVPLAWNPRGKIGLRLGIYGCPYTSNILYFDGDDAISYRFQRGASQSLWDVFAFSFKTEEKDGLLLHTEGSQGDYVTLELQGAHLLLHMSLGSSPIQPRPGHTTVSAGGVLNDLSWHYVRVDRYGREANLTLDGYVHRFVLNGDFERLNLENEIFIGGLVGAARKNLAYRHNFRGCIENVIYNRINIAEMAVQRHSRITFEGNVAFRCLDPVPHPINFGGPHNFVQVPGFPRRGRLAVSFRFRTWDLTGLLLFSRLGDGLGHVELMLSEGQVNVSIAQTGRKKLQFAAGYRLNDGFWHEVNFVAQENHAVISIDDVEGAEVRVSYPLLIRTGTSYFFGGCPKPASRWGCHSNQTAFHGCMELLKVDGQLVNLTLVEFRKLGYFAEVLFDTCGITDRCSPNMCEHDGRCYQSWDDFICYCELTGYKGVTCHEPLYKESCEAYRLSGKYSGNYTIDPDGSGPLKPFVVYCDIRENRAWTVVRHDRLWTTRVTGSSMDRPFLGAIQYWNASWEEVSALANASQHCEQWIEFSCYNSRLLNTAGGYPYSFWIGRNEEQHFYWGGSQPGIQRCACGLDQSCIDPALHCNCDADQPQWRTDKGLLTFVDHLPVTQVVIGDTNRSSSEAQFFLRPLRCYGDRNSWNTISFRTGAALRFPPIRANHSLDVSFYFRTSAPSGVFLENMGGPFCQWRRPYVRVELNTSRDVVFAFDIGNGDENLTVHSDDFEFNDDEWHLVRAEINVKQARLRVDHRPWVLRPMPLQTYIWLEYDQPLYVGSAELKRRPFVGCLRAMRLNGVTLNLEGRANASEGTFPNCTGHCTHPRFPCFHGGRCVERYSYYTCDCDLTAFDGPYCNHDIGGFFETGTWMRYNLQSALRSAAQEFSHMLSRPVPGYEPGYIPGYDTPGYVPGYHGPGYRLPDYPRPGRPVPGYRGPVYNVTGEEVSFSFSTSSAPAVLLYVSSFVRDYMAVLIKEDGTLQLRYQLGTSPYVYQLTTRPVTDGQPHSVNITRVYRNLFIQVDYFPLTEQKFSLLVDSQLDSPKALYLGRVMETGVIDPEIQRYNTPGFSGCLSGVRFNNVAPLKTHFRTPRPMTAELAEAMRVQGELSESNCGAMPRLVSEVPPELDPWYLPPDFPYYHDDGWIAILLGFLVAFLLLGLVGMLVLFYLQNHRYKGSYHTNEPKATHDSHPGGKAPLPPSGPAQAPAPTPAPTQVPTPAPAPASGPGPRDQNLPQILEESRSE
Description: Briefly, brain tissue was homogenized in ice-cold homogenizing buffer (320 mM sucrose, 10 mM Tris-HCl pH7.4, 1 mM NaHCO_3 pH7.4, 1 mM MgCl_2) supplemented with 1% protease inhibitor cocktail (Amersham), and subsequently centrifuged at 5,000 g for 15 min. The supernatant was collected and spun at 60,000 g (Beckman ultracentrifuge) for 60 min at 4° C. Pellets were then dissolved in a lysis buffer (10 mM Tris-HCl pH9, 150 mM NaCl, 0.5% Triton X-100, 1% sodium deoxycholate (DOC), 0.5% SDS, 2 mM EDTA, and 1% protease inhibitor cocktail) for subsequent experiments.

[2] = target: Notch on primary rat oligodendrocytes and oligodendrocyte precursor cells (rat, UniProt Q07008 19-2531); assay: cell-based or functional assay
[3] = target: T2, F3 on F3-transfected CHO cells (UniProt P12960 21-1001); assay: cell adhesion assay, F3-CHO cells on coated substrate
T2 construct: whole, on cells; also called F3-CHO; F3-expressing CHO cells
T2 sequence (looked up): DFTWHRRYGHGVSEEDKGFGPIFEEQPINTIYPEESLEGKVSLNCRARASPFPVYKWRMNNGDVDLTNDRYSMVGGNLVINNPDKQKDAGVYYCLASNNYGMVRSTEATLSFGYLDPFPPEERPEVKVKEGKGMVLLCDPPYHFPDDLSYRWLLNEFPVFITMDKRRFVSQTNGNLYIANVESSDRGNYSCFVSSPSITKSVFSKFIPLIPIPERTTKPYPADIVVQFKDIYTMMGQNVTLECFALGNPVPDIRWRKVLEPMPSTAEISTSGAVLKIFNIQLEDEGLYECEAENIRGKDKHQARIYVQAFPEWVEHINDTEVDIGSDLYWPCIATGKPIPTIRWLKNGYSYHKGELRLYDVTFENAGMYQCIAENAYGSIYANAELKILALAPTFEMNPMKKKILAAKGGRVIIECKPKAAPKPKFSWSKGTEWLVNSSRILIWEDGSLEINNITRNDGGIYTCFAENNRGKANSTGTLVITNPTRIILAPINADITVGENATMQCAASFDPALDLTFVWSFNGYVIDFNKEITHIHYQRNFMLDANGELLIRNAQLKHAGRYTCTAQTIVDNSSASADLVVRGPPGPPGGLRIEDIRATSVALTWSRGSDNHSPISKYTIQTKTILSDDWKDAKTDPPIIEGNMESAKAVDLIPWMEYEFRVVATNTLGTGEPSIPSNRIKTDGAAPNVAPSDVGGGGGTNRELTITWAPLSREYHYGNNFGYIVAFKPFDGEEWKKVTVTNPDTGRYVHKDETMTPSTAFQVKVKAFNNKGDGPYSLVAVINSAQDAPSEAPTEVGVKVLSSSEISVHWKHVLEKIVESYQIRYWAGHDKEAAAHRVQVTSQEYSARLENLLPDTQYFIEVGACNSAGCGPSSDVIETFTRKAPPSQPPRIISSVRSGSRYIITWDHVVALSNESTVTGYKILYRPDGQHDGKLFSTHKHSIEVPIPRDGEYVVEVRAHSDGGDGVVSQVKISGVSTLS

[4] = target: T3, Notch2 on OLN-93 cells (rat, UniProt Q9QW30 26-2471); assay: OLN-93 cell adhesion to F3-Fc substrate with antibody blockade
T3 construct: whole, on cells; also called OLN cells
Description: This was carried out as previously described (Xiao et al, 1996). Briefly, 35 mm tissue culture petri dishes (Becton Dickinson) were coated with methanol solubilized nitrocellulose (Lagenaur and Lemon, 1987) and air-dried under a sterile hood.

[5] = target: myc-tagged full-length mouse Notch1 on transfected OLN cells (mouse, UniProt Q01705 19-2531); assay: cell-based or functional assay
Sequence of myc-tagged full-length mouse Notch1 on transfected OLN cells (Q01705 19-2531): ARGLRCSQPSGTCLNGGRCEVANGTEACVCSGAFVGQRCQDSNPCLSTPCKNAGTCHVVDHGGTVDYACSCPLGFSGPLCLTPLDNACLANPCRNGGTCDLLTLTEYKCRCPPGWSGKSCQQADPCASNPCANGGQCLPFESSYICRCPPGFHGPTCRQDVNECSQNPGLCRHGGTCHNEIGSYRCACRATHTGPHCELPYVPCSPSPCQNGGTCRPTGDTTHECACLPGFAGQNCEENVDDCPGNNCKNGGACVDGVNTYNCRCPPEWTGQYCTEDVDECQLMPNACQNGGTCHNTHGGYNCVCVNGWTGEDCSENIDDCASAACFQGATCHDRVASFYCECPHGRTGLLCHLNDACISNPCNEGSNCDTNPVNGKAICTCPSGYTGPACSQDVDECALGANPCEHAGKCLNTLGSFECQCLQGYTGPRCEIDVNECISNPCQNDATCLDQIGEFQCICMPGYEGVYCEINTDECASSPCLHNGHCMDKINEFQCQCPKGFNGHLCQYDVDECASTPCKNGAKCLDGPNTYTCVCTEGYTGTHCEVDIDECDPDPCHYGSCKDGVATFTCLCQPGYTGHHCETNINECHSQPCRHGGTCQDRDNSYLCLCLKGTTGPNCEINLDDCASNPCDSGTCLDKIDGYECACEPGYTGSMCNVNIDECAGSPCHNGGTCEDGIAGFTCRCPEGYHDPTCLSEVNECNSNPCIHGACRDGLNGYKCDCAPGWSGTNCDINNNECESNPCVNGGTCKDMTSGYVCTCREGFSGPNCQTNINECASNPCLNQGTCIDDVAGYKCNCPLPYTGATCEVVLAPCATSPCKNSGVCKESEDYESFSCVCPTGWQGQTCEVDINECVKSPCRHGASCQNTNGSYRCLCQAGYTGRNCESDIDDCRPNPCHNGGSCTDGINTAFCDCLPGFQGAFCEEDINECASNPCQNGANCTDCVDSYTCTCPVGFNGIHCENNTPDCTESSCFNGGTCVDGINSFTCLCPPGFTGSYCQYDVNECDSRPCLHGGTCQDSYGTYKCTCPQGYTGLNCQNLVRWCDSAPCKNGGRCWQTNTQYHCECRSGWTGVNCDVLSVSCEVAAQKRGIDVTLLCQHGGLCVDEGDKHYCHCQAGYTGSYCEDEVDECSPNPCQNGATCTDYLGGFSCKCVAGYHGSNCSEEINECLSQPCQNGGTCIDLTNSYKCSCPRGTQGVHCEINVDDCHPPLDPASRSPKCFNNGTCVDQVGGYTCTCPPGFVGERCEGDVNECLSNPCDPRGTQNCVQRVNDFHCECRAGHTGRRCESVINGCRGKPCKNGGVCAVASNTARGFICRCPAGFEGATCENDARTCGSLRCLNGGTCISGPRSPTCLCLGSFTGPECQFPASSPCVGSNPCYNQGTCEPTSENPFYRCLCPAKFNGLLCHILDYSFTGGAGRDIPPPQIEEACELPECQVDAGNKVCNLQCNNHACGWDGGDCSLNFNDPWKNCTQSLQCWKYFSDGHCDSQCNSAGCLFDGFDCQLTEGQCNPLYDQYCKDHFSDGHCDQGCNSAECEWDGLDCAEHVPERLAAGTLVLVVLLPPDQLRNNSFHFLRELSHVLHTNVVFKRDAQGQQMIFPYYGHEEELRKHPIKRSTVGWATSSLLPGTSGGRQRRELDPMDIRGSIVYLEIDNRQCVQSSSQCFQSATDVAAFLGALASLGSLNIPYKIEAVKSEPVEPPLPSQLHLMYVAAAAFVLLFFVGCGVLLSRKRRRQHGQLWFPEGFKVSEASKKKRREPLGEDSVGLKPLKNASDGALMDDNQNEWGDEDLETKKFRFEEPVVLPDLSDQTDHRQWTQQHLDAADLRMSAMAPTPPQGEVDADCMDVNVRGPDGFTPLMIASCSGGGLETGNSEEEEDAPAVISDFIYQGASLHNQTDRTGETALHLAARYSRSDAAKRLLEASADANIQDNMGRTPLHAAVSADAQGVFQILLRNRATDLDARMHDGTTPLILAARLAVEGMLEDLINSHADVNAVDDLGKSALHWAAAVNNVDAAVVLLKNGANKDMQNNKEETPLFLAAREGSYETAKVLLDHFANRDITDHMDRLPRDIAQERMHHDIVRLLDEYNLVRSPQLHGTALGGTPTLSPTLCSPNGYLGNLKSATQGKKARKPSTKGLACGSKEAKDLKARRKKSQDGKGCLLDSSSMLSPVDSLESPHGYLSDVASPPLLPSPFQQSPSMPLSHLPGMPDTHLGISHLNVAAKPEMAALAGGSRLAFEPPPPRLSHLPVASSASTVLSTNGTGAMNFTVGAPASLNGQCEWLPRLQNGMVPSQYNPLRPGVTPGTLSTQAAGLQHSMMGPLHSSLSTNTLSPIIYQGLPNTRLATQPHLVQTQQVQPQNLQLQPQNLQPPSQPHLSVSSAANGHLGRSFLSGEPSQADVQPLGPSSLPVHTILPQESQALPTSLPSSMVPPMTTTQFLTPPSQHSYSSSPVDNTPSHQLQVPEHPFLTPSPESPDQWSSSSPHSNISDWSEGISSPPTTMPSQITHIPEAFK

Sequence of Notch on primary rat oligodendrocytes and oligodendrocyte precursor cells (Q07008 19-2531): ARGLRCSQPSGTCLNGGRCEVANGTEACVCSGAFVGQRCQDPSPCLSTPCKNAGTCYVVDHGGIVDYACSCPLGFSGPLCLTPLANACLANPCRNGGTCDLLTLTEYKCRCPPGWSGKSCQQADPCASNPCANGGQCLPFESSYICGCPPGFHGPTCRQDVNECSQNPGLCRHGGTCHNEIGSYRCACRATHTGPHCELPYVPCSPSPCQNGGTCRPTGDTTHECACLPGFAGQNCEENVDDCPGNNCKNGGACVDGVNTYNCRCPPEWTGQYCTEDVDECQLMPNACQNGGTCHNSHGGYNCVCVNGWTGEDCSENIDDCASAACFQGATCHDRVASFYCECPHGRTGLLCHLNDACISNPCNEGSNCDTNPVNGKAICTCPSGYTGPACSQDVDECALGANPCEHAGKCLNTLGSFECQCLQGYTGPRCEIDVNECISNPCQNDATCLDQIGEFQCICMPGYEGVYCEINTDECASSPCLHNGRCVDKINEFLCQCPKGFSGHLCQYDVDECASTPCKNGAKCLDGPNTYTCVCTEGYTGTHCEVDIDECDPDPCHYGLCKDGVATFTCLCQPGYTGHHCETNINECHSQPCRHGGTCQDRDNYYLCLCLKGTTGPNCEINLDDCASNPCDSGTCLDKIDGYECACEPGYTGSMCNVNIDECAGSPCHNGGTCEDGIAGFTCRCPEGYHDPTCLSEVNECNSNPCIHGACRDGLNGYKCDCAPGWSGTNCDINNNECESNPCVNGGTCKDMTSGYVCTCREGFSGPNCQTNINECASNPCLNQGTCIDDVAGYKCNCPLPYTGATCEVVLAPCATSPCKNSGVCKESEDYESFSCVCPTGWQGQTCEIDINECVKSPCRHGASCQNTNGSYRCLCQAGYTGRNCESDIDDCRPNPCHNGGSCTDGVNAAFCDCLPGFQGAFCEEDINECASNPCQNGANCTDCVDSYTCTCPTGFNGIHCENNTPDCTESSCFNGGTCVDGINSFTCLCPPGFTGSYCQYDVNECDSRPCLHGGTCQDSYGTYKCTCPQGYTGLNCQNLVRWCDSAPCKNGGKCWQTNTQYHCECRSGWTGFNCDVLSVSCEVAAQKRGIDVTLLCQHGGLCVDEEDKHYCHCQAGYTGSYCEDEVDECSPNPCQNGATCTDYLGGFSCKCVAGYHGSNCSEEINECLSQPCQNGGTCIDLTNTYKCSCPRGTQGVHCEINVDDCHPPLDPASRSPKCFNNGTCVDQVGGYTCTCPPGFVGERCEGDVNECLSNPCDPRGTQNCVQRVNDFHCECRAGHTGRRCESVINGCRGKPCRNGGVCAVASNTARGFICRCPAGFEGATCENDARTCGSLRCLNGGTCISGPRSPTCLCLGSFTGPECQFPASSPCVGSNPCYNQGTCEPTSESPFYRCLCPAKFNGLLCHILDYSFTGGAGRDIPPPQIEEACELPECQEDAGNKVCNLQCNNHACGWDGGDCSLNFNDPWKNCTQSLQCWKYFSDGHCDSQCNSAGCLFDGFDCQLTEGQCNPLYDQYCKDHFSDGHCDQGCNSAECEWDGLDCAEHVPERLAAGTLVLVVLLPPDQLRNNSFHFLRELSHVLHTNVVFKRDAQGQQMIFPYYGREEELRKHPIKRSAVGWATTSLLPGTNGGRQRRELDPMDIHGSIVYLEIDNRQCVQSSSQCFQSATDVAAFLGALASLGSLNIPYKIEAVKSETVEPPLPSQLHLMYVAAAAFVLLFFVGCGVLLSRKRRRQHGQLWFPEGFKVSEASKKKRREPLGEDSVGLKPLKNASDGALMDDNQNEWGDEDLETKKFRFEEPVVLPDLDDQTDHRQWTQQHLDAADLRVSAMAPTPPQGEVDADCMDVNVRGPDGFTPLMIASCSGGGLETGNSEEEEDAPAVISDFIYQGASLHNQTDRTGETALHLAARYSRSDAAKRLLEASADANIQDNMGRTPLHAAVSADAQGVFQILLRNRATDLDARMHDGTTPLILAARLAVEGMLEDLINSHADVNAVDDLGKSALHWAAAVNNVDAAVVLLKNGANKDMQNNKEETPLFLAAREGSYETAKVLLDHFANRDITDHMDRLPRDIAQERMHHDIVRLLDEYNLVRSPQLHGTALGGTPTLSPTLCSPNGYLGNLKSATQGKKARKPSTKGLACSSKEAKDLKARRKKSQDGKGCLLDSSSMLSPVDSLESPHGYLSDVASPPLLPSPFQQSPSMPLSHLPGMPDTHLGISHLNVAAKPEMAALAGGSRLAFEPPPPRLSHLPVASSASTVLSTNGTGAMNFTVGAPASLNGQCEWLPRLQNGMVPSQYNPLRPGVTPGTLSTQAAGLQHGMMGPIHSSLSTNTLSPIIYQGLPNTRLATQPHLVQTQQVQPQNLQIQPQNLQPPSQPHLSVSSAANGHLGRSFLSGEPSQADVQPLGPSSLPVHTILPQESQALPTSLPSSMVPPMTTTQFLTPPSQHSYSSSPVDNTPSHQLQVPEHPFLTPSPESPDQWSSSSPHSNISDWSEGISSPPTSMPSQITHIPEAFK

B1: NB-3 (native, rat brain) (ligand, UniProt P97528 20-999, looked up)
chain: ESRFTRPIFIQEPQDVIFPLDLSRSEIILSCTASGYPSPHYRWKQNGTDIDFSMTYHYRLDGGSLAISSPRTDQDIGIYQCLATNPVGTILSRKAKLQFAYIEDFETKSRSTVSVREGQGVVLLCGPPPHFGELSYDWTFNDNPLYVQEDKRRFVSQNTGNLYIAKVEPSDVGNYTCFVTNKEAHRSVQGPPTPLVQRTDGVMGEYEPKIEVRFPETIQAAKDSSVKLECFALGNPVPDISWRRLDGSPMPGKVKYSNSQATLEIPKFQQEDEGFYECVAGNLRGRNLAKGQLIFYAPPEWEQKIQNTYLSIYDSLFWECKASGNPNPSYTWLKNGERLNTEERIQTENGTLIITMLNVSDSGIYQCAAENKYQTIYANAELRVLASAPDFSKNPIKKISVVQVGGDISIECKPNAFPKASISWKRGTENLKQSKRVFFLEDGSLKICNVTRSDAGSYTCVATNQFGNGKSSGSLIVKERTVITVPPSKMDVTVGESIVLPCQVSHDPTMEVLFVWYFNGDVIDLKKGVAHFERIGGESVGDLMIRNIQLGHSGKYLCTVQTTLERLSAVADIIVRGPPGPPEDVKVEHISSTTSQLSWRPGPDNNSPIQIFTIQTRTPFSVGWQAVATVPEILNGQTYNATVIGLSPWVEYEFRVVAGNNIGIGEPSKPSELLRTKASIPNVAPVNINGGGGSRSELVITWEPIPEELQNGEGFGYIIMFRPVGSTTWMKEKVALVESSKFIYRNESIMPLSPFEVKVGVYNNEGEGSLSTVSIVYSGEDEPRLAPRGTSVQSFSASDMEVSWNAIAWNRNTGRVLGYEVLYWTDNSKESMIGKIRVSGNVTTKNITGLRANTIYFASVRAYNTAGTGPSSPPVNVTTKKSPPSQPPANIAWKLSNSKLCLNWEHVKTMENESEVLGYKILYRQNRQSKTHVLETNNTSAELLVPFEEDYLIEIRTVSDGGDGSSSEEIRIPKMSSLSS
[1]
  binding result: no binding

B2: NB-3-His (ligand, rat)
chain: ESRFTRPIFIQEPQDVIFPLDLSRSEIILSCTASGYPSPHYRWKQNGTDIDFSMTYHYRLDGGSLAISSPRTDQDIGIYQCLATNPVGTILSRKAKLQFAYIEDFETKSRSTVSVREGQGVVLLCGPPPHFGELSYDWTFNDNPLYVQEDKRRFVSQNTGNLYIAKVEPSDVGNYTCFVTNKEAHRSVQGPPTPLVQRTDGVMGEYEPKIEVRFPETIQAAKDSSVKLECFALGNPVPDISWRRLDGSPMPGKVKYSNSQATLEIPKFQQEDEGFYECVAGNLRGRNLAKGQLIFYAPPEWEQKIQNTYLSIYDSLFWECKASGNPNPSYTWLKNGERLNTEERIQTENGTLIITMLNVSDSGIYQCAAENKYQTIYANAELRVLASAPDFSKNPIKKISVVQVGGDISIECKPNAFPKASISWKRGTENLKQSKRVFFLEDGSLKICNVTRSDAGSYTCVATNQFGNGKSSGSLIVKERTVITVPPSKMDVTVGESIVLPCQVSHDPTMEVLFVWYFNGDVIDLKKGVAHFERIGGESVGDLMIRNIQLGHSGKYLCTVQTTLERLSAVADIIVRGPPGPPEDVKVEHISSTTSQLSWRPGPDNNSPIQIFTIQTRTPFSVGWQAVATVPEILNGQTYNATVIGLSPWVEYEFRVVAGNNIGIGEPSKPSELLRTKASIPNVAPVNINGGGGSRSELVITWEPIPEELQNGEGFGYIIMFRPVGSTTWMKEKVALVESSKFIYRNESIMPLSPFEVKVGVYNNEGEGSLSTVSIVYSGEDEPRLAPRGTSVQSFSASDMEVSWNAIAWNRNTGRVLGYEVLYWTDNSKESMIGKIRVSGNVTTKNITGLRANTIYFASVRAYNTAGTGPSSPPVNVTTKKSPPSQPPANIAWKLSNSKLCLNWEHVKTMENESEVLGYKILYRQNRQSKTHVLETNNTSAELLVPFEEDYLIEIRTVSDGGDGSSSEEIRIPKMSSLSSHHHHHH
[2]
  MAG mRNA, real-time RT-PCR, primary oligodendrocytes on protein substrate against BSA: ~8 fold

B3: GST-Nogo-66 (other, UniProt Q9NQC3 1055-1120, looked up)
chain: RIYKGVIQAIQKSDEGHPFRAYLESEVAISEELVQKYSNSALGHVNCTIKELRRLFLVDDLVDSLK
notes: also called Nogo-66-GST; recombinant GST-Nogo-66 protein; not shown: glutathione S-transferase (GST) encoded by vector pGEX-KG
[3]
  binding result: no binding

B4: F3-Fc (Fc fusion, mouse, UniProt P12960 21-1001, looked up)
chain: DFTWHRRYGHGVSEEDKGFGPIFEEQPINTIYPEESLEGKVSLNCRARASPFPVYKWRMNNGDVDLTNDRYSMVGGNLVINNPDKQKDAGVYYCLASNNYGMVRSTEATLSFGYLDPFPPEERPEVKVKEGKGMVLLCDPPYHFPDDLSYRWLLNEFPVFITMDKRRFVSQTNGNLYIANVESSDRGNYSCFVSSPSITKSVFSKFIPLIPIPERTTKPYPADIVVQFKDIYTMMGQNVTLECFALGNPVPDIRWRKVLEPMPSTAEISTSGAVLKIFNIQLEDEGLYECEAENIRGKDKHQARIYVQAFPEWVEHINDTEVDIGSDLYWPCIATGKPIPTIRWLKNGYSYHKGELRLYDVTFENAGMYQCIAENAYGSIYANAELKILALAPTFEMNPMKKKILAAKGGRVIIECKPKAAPKPKFSWSKGTEWLVNSSRILIWEDGSLEINNITRNDGGIYTCFAENNRGKANSTGTLVITNPTRIILAPINADITVGENATMQCAASFDPALDLTFVWSFNGYVIDFNKEITHIHYQRNFMLDANGELLIRNAQLKHAGRYTCTAQTIVDNSSASADLVVRGPPGPPGGLRIEDIRATSVALTWSRGSDNHSPISKYTIQTKTILSDDWKDAKTDPPIIEGNMESAKAVDLIPWMEYEFRVVATNTLGTGEPSIPSNRIKTDGAAPNVAPSDVGGGGGTNRELTITWAPLSREYHYGNNFGYIVAFKPFDGEEWKKVTVTNPDTGRYVHKDETMTPSTAFQVKVKAFNNKGDGPYSLVAVINSAQDAPSEAPTEVGVKVLSSSEISVHWKHVLEKIVESYQIRYWAGHDKEAAAHRVQVTSQEYSARLENLLPDTQYFIEVGACNSAGCGPSSDVIETFTRKAPPSQPPRIISSVRSGSRYIITWDHVVALSNESTVTGYKILYRPDGQHDGKLFSTHKHSIEVPIPRDGEYVVEVRAHSDGGDGVVSQVKISGVSTLS
notes: domain: F3 without the GPI-anchor; also called F3 substrate; soluble F3; not shown: human IgG Fc
[4]
  binding result: binds
[2]
  MAG mRNA, real-time RT-PCR, primary oligodendrocytes on protein substrate against BSA: ~8 fold
  MAG transcripts, real-time PCR, primary OLs on F3 substrate against BSA: ~16 fold
[5]
  nuclear NICD staining intensity: 2 fold
